Test results published in patent publication US20190202883A1 (Takeda / Millennium, published 2019).
Square brackets hold non-standard residues; d marks the D form. Side chains are listed from the residue outwards. Phe(2-F) = N[C@@H](Cc1ccccc1F)C(=O)O; αMeF = C[C@](N)(Cc1ccccc1)C(=O)O; Iva = CC[C@](C)(N)C(=O)O; Oda = not defined here; Aib = CC(C)(N)C(=O)O

T1: human GIPR (human, UniProt P48546 22-466)
T1 sequence (looked up): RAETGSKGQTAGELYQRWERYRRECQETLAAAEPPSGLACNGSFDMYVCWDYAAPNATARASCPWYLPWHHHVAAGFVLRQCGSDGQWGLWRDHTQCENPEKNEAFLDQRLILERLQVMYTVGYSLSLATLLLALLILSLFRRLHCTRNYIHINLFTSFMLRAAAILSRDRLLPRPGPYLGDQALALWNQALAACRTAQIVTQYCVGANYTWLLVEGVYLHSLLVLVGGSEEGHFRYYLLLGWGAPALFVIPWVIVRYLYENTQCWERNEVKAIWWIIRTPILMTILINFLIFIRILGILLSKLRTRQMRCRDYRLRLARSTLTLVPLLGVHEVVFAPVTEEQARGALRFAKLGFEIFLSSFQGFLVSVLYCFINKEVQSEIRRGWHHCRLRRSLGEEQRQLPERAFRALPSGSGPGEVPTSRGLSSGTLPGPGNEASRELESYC

T2: human NPY2R (human, UniProt P49146 1-381)
T2 sequence (looked up): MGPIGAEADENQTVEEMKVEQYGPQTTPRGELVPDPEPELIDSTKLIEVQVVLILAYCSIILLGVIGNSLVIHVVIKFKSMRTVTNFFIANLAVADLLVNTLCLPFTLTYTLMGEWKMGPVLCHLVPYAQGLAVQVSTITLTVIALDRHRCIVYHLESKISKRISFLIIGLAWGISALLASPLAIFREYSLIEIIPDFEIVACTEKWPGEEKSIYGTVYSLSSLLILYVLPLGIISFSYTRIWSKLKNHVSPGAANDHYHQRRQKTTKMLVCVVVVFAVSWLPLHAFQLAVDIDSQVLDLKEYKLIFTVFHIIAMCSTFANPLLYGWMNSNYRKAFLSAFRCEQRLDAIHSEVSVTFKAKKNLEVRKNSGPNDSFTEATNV


Experiments:
Assay in all cases: cell-based or functional assay
human GIPR = target: T1, human GIPR
human GLP-1R = human GLP-1R (human, UniProt P43220 24-463)
human NPY2R = target: T2, human NPY2R

Binder	Agonist activity (EC50), Cre-luc reporter assay (human GIPR) [pM]	Agonist activity (EC50), Cre-luc reporter assay (human GLP-1R) [pM]	Agonist activity (EC50), Cre-luc reporter assay (human NPY2R) [nM]
H-Y[Aib]EGT[αMeF]TSDK([Gly-Gly-Gly-Gly-Oda])[Aib]K[Aib]LDKQRQ[Iva]EFVRHLLNK[Aib]TRQRY-NH2 (reading uncertain; also: printed as H-Tyr-Aib-Glu-Gly-Thr-αMePhe-Thr-Ser-Asp-Lys(-Gly-Gly-Gly-Gly-Oda)-Aib-Lys-Aib-Leu-Asp-Lys-Gln-Arg-Gln-Iva-Glu-Phe-Val-Arg-His-Leu-Leu-Asn-Lys-Aib-Thr-Arg-Gln-Arg-Tyr-NH2)	1000	940	1.5
H-Y[Aib]EGT[αMeF]TSDK([Gly-Gly-Gly-Gly-Oda])[Aib]I[Aib]LDKQRQ[Iva]EFVRHLLNK[Aib]TRQRY-NH2 (reading uncertain; also: printed as H-Tyr-Aib-Glu-Gly-Thr-αMePhe-Thr-Ser-Asp-Lys(-Gly-Gly-Gly-Gly-Oda)-Aib-Ile-Aib-Leu-Asp-Lys-Gln-Arg-Gln-Iva-Glu-Phe-Val-Arg-His-Leu-Leu-Asn-Lys-Aib-Thr-Arg-Gln-Arg-Tyr-NH2)	220	320	2.1
H-Y[Aib]EGT[αMeF]TSDK([Gly-Gly-Gly-Gly-Pal])[Aib]K[Aib]LDKQRQ[Iva]EFVRHLLNK[Aib]TRQRY-NH2	44	60	0.064
Me-Y[Aib]EGT[αMeF]TSDK([Gly-Gly-Gly-Gly-Oda])[Aib]I[Aib]LDKQRQ[Iva]EFVRHLLNK[Aib]TRQRY-NH2 (reading uncertain; also: printed as Me-Tyr-Aib-Glu-Gly-Thr-αMePhe-Thr-Ser-Asp-Lys(-Gly-Gly-Gly-Gly-Oda)-Aib-Ile-Aib-Leu-Asp-Lys-Gln-Arg-Gln-Iva-Glu-Phe-Val-Arg-His-Leu-Leu-Asn-Lys-Aib-Thr-Arg-Gln-Arg-Tyr-NH2)	250	1400	2
H-Y[Aib]EGT[αMeF]TSDK([Gly-Gly-Gly-Gly-Oda])AI[Aib]LDKQRQ[Iva]EFVRHLLNK[Aib]TRQRY-NH2 (reading uncertain; also: printed as H-Tyr-Aib-Glu-Gly-Thr-αMePhe-Thr-Ser-Asp-Lys(-Gly-Gly-Gly-Gly-Oda)-Ala-Ile-Aib-Leu-Asp-Lys-Gln-Arg-Gln-Iva-Glu-Phe-Val-Arg-His-Leu-Leu-Asn-Lys-Aib-Thr-Arg-Gln-Arg-Tyr-NH2)	260	1200	3
Me-Y[Aib]EGT[αMeF]TSDK([Gly-Gly-Gly-Gly-Oda])AI[Aib]LDKQRQ[Iva]EFVRHLLNK[Aib]TRQRY-NH2 (reading uncertain; also: printed as Me-Tyr-Aib-Glu-Gly-Thr-αMePhe-Thr-Ser-Asp-Lys(-Gly-Gly-Gly-Gly-Oda)-Ala-Ile-Aib-Leu-Asp-Lys-Gln-Arg-Gln-Iva-Glu-Phe-Val-Arg-His-Leu-Leu-Asn-Lys-Aib-Thr-Arg-Gln-Arg-Tyr-NH2)	170	4400	3.2
H-Y[Aib]EGT[αMeF]TSDK([Gly-Gly-Gly-Gly-Oda])[Aib]I[Aib]LDKQAQ[Iva]EFVRHLLNK[Aib]TRQR[Phe(2-F)]-NH2 (reading uncertain; also: printed as H-Tyr-Aib-Glu-Gly-Thr-αMePhe-Thr-Ser-Asp-Lys(-Gly-Gly-Gly-Gly-Oda)-Aib-Ile-Aib-Leu-Asp-Lys-Gln-Ala-Gln-Iva-Glu-Phe-Val-Arg-His-Leu-Leu-Asn-Lys-Aib-Thr-Arg-Gln-Arg-Phe(2-F)-NH2)	71	110	2.1
H-Y[Aib]EGT[αMeF]TSDK([Gly-Gly-Gly-Gly-Pal])SI[Aib]LDKQRQ[Iva]EFVRHLLNK[Aib]TRQRY-NH2	56	50	0.048
H-Y[Aib]EGT[αMeF]TSDK([Gly-Gly-Gly-Gly-Oda])SI[Aib]LDKQRQ[Iva]EFVRHLLNK[Aib]TRQRY-NH2 (reading uncertain; also: printed as H-Tyr-Aib-Glu-Gly-Thr-αMePhe-Thr-Ser-Asp-Lys(-Gly-Gly-Gly-Gly-Oda)-Ser-Ile-Aib-Leu-Asp-Lys-Gln-Arg-Gln-Iva-Glu-Phe-Val-Arg-His-Leu-Leu-Asn-Lys-Aib-Thr-Arg-Gln-Arg-Tyr-NH2)	110	470	2.6
H-Y[Aib]EGT[αMeF]TSDK([Gly-Gly-Gly-Gly-Pal])AI[Aib]LDKQRQ[Iva]EFVRHLLNK[Aib]TRQRY-NH2	66	79	0.099

Further lines, results first:

Agonist activity (EC50), Cre-luc reporter assay (human GIPR) [pM]	Agonist activity (EC50), Cre-luc reporter assay (human GLP-1R) [pM]	Agonist activity (EC50), Cre-luc reporter assay (human NPY2R) [nM]	Binder
91	1900	2.4	Me-Y[Aib]EGT[αMeF]TSDK([Gly-Gly-Gly-Gly-Oda])SI[Aib]LDKQRQ[Iva]EFVRHLLNK[Aib]TRQRY-NH2 (reading uncertain; also: printed as Me-Tyr-Aib-Glu-Gly-Thr-αMePhe-Thr-Ser-Asp-Lys(-Gly-Gly-Gly-Gly-Oda)-Ser-Ile-Aib-Leu-Asp-Lys-Gln-Arg-Gln-Iva-Glu-Phe-Val-Arg-His-Leu-Leu-Asn-Lys-Aib-Thr-Arg-Gln-Arg-Tyr-NH2)
68	83	0.1	Me-Y[Aib]EGT[αMeF]TSDK([Gly-Gly-Gly-Gly-Pal])[Aib]I[Aib]LDKQRQ[Iva]EFVRHLLNK[Aib]TRQRY-NH2
50	49	0.081	Me-Y[Aib]EGT[αMeF]TSDK([Gly-Gly-Gly-Gly-Pal])SI[Aib]LDKQRQ[Iva]EFVRHLLNK[Aib]TRQRY-NH2
74	100	0.1	Me-Y[Aib]EGT[αMeF]TSDK([Gly-Gly-Gly-Gly-Pal])AI[Aib]LDKQRQ[Iva]EFVRHLLNK[Aib]TRQRY-NH2
